Measured values published in US10363306B2, “Cytokines and neuroantigens for treatment of immune disorders” (East Carolina University, priority 2009, dated 2019).

Legend:
EAE in SJL mice = test: Treatment of passively induced EAE and second active challenge in SJL mice; assay type: in vivo; conditions: murine IFNβ/PLP139-151 fusion protein; 2 nanomoles s.c. days 12, 14, 16
Method: FIG. 8. […] Shown are the time-courses of EAE (A) and the percent maximal weight (B) from example 4.
On day 0, mice were passively challenged with activated, encephalitogenic T cells specific for the PLP139-151 epitope. […] On day 12, three groups of mice were matched for clinical severity. On days 12, 14, and 16, mice were treated with the IFNβ-NAg fusion protein (2 nanomoles), a synthetic PLP139-151 peptide (2 nanomoles), or saline. Treatments were given by subcutaneous injections of proteins or peptides in saline. On day 24, mice were actively challenged to induce a second bout of EAE by challenge with 200 micrograms of PLP139-151 in Complete Freund's Adjuvant. […] Furthermore, the fusion protein promoted a tolerogenic effect that ameliorated the subsequent bout of EAE (FIG. 8A). These observations support the concept that the IFNβ-NAg fusion protein may have clinical activities conducive for the treatment of autoimmune demyelinating disease of the central nervous system.

CTLL T cells = test: Anti-proliferative/killing activity on CTLL T cells; assay type: cell-based, mouse; conditions: murine CTLL T cells; baculovirus supernatants
Method: (§1) FIG. 1. The IFNβ-NAg his-tagged fusion protein was biologically active and was purified on nickel resins. (A) To assess whether IFNβ-NAg induced class I MHC expression, thymocytes (5×10^6/ml in complete RPMI) were cultured with or without IFNβ-NAg for 2 days and then were stained with B5 (anti-MHC-I), OX18 (anti-MHC-I), R73 (anti-TCRβ), or OX81 (anti-IL4; isotype control) and were analyzed by flow cytometry. (B) To assess IFNβ-mediated anti-proliferative activity, supernatants from two independently derived IFNβ-NAg expression systems as well as supernatants from several control expression systems were added at designated titrations (x-axis) to IL-2 stimulated cultures of BN-GP T cells. (C) To assess the specificity of anti-proliferative activity, baculovirus supernatants containing IFNβ-NAg were added at designated titrations to cultures of rat (R1T, BN-GP, RsL.11T, RsL.11, or Conal.8D9) or mouse (CTLL) T cells. Proliferative assays (B & C) were pulsed with [^3H]thymidine on the second day of a 3-day culture. (D) Shown is a representative SDS-PAGE analysis of purified IFNβ-NAg. […]
(§2) Cultures were pulsed with 1 uCi of [^3H]thymidine (6.7 Ci/mmol, New England Nuclear) during the last day of a 3 or 4 day culture. […] [^3H]thymidine incorporation into DNA was measured by use of a Wallac 1450 Microbeta Plus liquid scintillation counter. […]

RsL.11 clone = test: Anti-proliferative/killing activity on RsL.11 T cells; assay type: cell-based, rat; conditions: baculovirus supernatants
Method: as §1, §2

R1T = test: Anti-proliferative/killing activity on R1T T cells; assay type: cell-based, rat; conditions: baculovirus supernatants
Method: as §1, §2

thymocytes = test: Induction of class I MHC expression on thymocytes (flow cytometry); assay type: cell-based; conditions: 2 days of culture
Method: FIG. 1. The IFNβ-NAg his-tagged fusion protein was biologically active and was purified on nickel resins. (A) To assess whether IFNβ-NAg induced class I MHC expression, thymocytes (5×10^6/ml in complete RPMI) were cultured with or without IFNβ-NAg for 2 days and then were stained with B5 (anti-MHC-I), OX18 (anti-MHC-I), R73 (anti-TCRβ), or OX81 (anti-IL4; isotype control) and were analyzed by flow cytometry. (B) To assess IFNβ-mediated anti-proliferative activity, supernatants from two independently derived IFNβ-NAg expression systems as well as supernatants from several control expression systems were added at designated titrations (x-axis) to IL-2 stimulated cultures of BN-GP T cells. (C) To assess the specificity of anti-proliferative activity, baculovirus supernatants containing IFNβ-NAg were added at designated titrations to cultures of rat (R1T, BN-GP, RsL.11T, RsL.11, or Conal.8D9) or mouse (CTLL) T cells. Proliferative assays (B & C) were pulsed with [^3H]thymidine on the second day of a 3-day culture. (D) Shown is a representative SDS-PAGE analysis of purified IFNβ-NAg.
T cells were incubated with a 1/20 titration of a concentrated supernatant containing the designated mAb for 45 minutes at 4° C. […] Data were acquired with a Becton Dickinson FACScan flow cytometer and were analyzed with the CELLQuest software program. […]

RsL.11T = test: Anti-proliferative/killing activity on RsL.11T T cells; assay type: cell-based, rat; conditions: baculovirus supernatants
Method: as §1, §2

Conal.8D9 = test: Anti-proliferative/killing activity on Conal.8D9 T cells; assay type: cell-based, rat; conditions: baculovirus supernatants
Method: as §1, §2

B1: IFNβ-NAg: Fusion protein: rat IFNβ, enterokinase linker (GDDDDKG), encephalitogenic 73-87 peptide of guinea pig MBP, C-terminal 6-histidine tag (protein)
chain: IDYKQLQFRQSTSIRTCQKLLRQLNGRLNLSYRTDFKIPMEVMHPSQMEKSYTAFAIQVMLQNVFLVFRSNFSSTGWNETIVESLLDELHQQTELLEIILKEKQEERLTWVTSTTTLGLKSYYWRVQRYLKDKKYNSYAWMVVRAEVFRNFSIILRLNRNFQNGDDDDKGPQKSQRSQDENPVVHHHHHH
With B1 as the molecule, how does the “EAE-associated cachexia (percent maximal weight)” value (EAE in SJL mice) read?
The value was “acutely reversed EAE-associated cachexia”.

And the “cell death of T cell line” value (CTLL T cells)?
Its value is “did not kill”.

And the “cell death of T cell line” value (RsL.11 clone)?
Its value is “directly caused the death”.

What about the “cell death of T cell line” value (R1T) of the same molecule?
Its value is “did not kill”.

And the “expression of MHC-I on immature thymocytes” value (thymocytes; 1% titration of baculovirus expression supernatant)?
Its value is “induced the expression of MHC-I”.

What about the TCRβ expression (thymocytes; baculovirus expression supernatant) of the same molecule?
Its TCRβ expression is “did not affect TCRβ expression”.

And the “cell death of T cell line” value (RsL.11T)?
The value was “directly caused the death”.

What about the “cell death of T cell line” value (Conal.8D9) of the same molecule?
Its value is “directly caused the death”.
